Data on four substances can be found in patent US20230365658A1.

The target in assay [1] is SARS-CoV-2 spike (S) glycoprotein, Omicron BA.4 (SARS-CoV-2) (UniProt P0DTC2). Kind of assay: cell-based or functional assay.
For assay [2], the target named is SARS-CoV-2 spike (S) glycoprotein, Omicron BA.2 (SARS-CoV-2) (UniProt P0DTC2). In words: cell-based or functional assay.
The target of assay [3] is SARS-CoV-2 spike (S) glycoprotein, Omicron BA.1.1 (SARS-CoV-2) (UniProt P0DTC2). In words: cell-based or functional assay.
Assay [4] deals with SARS-CoV-2 spike (S) glycoprotein, Omicron BA.1 (SARS-CoV-2) (UniProt P0DTC2). Kind of assay: cell-based or functional assay.
The target in assay [5] is COV2-RBD (rpk9) B.1.1.529 (BA.1) (SARS-CoV-2). In words: Gyrolab immunoassay, reference titration, relative binding (%).
Assay [6] has the same target.
Assay [7] addresses COV2-RBD (rpk9) Wuhan-Hu-1 (WT) (SARS-CoV-2).
For assay [8] the target is unchanged. This is another data set of the same source.
The target of assay [9] is SARS-CoV-2 spike (S) glycoprotein, Omicron BA.5.5 (SARS-CoV-2) (UniProt P0DTC2). In words: cell-based or functional assay.
The target in assay [10] is SARS-CoV-2 spike (S) glycoprotein, Delta (B.1.617.2) (SARS-CoV-2) (UniProt P0DTC2). In words: cell-based or functional assay.
In assay [11] the target is SARS-CoV-2 Spike-RBD, Delta (SARS-CoV-2) (UniProt P0DTC2). Kind of assay: Gyrolab immunoassay, reference titration, relative binding (%).
Assay [12] concerns the target COV2-RBD (rpk9) B.1.1.529 (BA.1) (SARS-CoV-2). Kind of assay: Gyrolab full-curve immunoassay (LLNL Gyros) on RBD.
The target of assay [13] is COV2-RBD (rpk9) Wuhan-Hu-1 (WT) (SARS-CoV-2). Kind of assay: Gyrolab full-curve immunoassay (LLNL Gyros) on RBD.
Assay [14] addresses COV2-RBD (rpk9) B.1.1.529 (BA.1) (SARS-CoV-2). Kind of assay: Gyrolab immunoassay, IgG titrated on Spike-RBD, relative binding (FI).
The target in assay [15] is COV2-RBD (rpk9) Wuhan-Hu-1 (WT) (SARS-CoV-2). The description is as above.
Assay [16] deals with COV2-RBD (rpk9) B.1.1.529 (BA.1) (SARS-CoV-2). In words: Gyros full-curve immunoassay, mAb titrated on RBD, relative binding (FI).
Assay [17] has as its target SARS-CoV-2 Spike-RBD, Delta (SARS-CoV-2) (UniProt P0DTC2). The description is as above.
The target of assay [18] is COV2-RBD (rpk9) Wuhan-Hu-1 (WT) (SARS-CoV-2). Described as above.

Several values for one entry are separate records, joined by “and”; a condition that tells them apart may be missing. Equal values may be shown once. Read-outs that look alike come from different tables or passages of the source.

Take rS2K146 (antibody): the normalized pseudoneutralization IC50 turned out to be 0.036 µg/mL in [1], 0.00336 µg/mL in assay [2], 0.00209 µg/mL in assay [3] and 0.00438 µg/mL in [4].

Turning to COV2-2130 (antibody), the EC50 (read off the curve) (commonly the concentration that produces a half-maximal response) in assay [5] worked out at 2 µg/mL; in assay [8], 0.8 µg/mL. The EC50 – broadly, the concentration giving half of the maximal effect – is 2.77 µg/mL and 1.75 µg/mL in assay [6]; 1.72 µg/mL and 0.675 µg/mL in assay [7].

Take rDENV-2D22 (antibody): the authentic virus neutralization IC50 (FRNT) in assay [1], in assay [9], in assay [10], in assay [3] and in assay [4] was over 10 µg/mL each time. In addition, the normalized pseudoneutralization IC50 in assay [1] and in assay [3] was over 10 µg/mL each time.

Regarding S309 (antibody), the EC50 (read off the curve) in [5] turned out to be 6 µg/mL; in assay [11], 2 µg/mL; in [8] it was 2 µg/mL; in [14], 4 µg/mL; in [15], 2 µg/mL; in assay [16], 4 µg/mL. The EC50 (read off the curve) in [17] and in assay [18] was 2 µg/mL throughout. The AUC(logC) was determined as 53.2 in assay [12] and 60.6 in assay [13]. The EC50 in assay [6] was 17.2 µg/mL; in assay [7], 5.76 µg/mL. The pseudovirus neutralization IC50 in assay [2] amounted to 0.109 µg/mL; in [3], 0.0332 µg/mL; in [4] it was 0.0632 µg/mL.
